Measurements published in PMC6774396 (Frontiers in Immunology, 2019).
Changes are numbered by the printed parent chain. Names may count otherwise.

Assays:
[1] = tested on: THP-1 cells over TNF-α-activated HUVEC; test: L-selectin-GFP/RFP clustering in mid-TEM under flow, FLIM/FRET; format: cell-based, human
Protocol: (A) Line scanning confocal microscopic image of THP-1 cells, stably expressing GFP, captured in mid-TEM—following 15 min of perfusion over TNF-α-activated HUVEC monolayers. […] “Top” and “Base,” respectively, represent the apical and basolateral aspect of the endothelium (x63 objective lens, Leica SP5). Scale bar = 24 μm. (B,C) THP-1 cells expressing WT, SSAA, or SSDD L-selectin-GFP/RFP were perfused over TNF-α-activated HUVEC and fixed after 15 min of perfusion. […] Lifetime images taken of at least 45 cells and analyzed over 3 independent experiments was quantified and expressed as FRET efficiency. Images representative of three independent experiments, where at least 45 cells of each group was analyzed at two optical sections, Top and Base, as indicated in the cartoon of a yellow monocyte captured in mid-TEM crossing a red endothelium. Individual GFP channel and lifetime images are provided for each cell line. The lifetime of fluorescence is expressed in a pseudocolour scale from red (low lifetime with a very high probability of interaction) to blue (high lifetime with a very low probability of interaction). Statistics: unpaired student t-test ***p ≤ 0.001.
Cells expressing WT L-selectin-GFP/RFP were treated for 30 min with 10 μM TAPI-0 and subsequently perfused over TNF-activated HUVEC monolayers for 15 min prior to fixation and analysis for FRET by FLIM (see Materials and Methods for more detail). […] (B) Images representative of three independent experiments, where at least 45 cells of each group were analyzed at two optical sections–non-transmigrated uropods (Top) and transmigrated pseudopods (Base). GFP fluorescence channel and lifetime images are provided for each cell line. The lifetime of fluorescence is expressed in a pseudocolour scale from red (low lifetime with a very high probability of interaction) to blue (high lifetime with a very low probability of interaction). […]
FLIM measurement of FRET was performed with a multiphoton microscope system as described previously ([8], [23]). […] Fluorescence lifetime imaging capability was provided by time-correlated, single-photon counting electronics (SPC 700; Becker & Hickl). […] Data were analyzed as previously described ([65]). The FRET efficiency is related to the molecular separation of donor and acceptor and the fluorescence lifetime of the interacting fraction by: […]
where ηFRET is the FRET efficiency, R0 is the Förster radius, r is the molecular separation, τFRET is the lifetime of the interacting fraction and τd is the lifetime of the donor in the absence of an acceptor. The donor- only control is used as the reference against which all of other lifetimes are calculated in each experiment. τFRET and τd can also be taken to be the lifetime of the interacting fraction and non-interacting fraction, respectively. […]

[2] = target: moesin FERM domain, 1-297 (UniProt P26038); test: SPR competition assay
[3] = tested on: THP-1 cells over TNF-α-activated HUVEC; test: Pseudopod protrusion scoring in TEM under flow; format: cell-based, human
Protocol: (A) The number of protrusions formed over this period was scored as: zero, one, two, or >2. (B) The percentages of cells bearing these protrusions were scored at specific time points: 6 min (blue bars), 15 min (green bars), or 25 min (red bars). Supplementary Videos 2, 3, 4 provide examples of cells producing a range of protrusions as TEM proceeds. Data represent SEM of 3 fields of view per flow experiment, conducted on three separate occasions, and at least 180 cells analyzed per group. Values of the vertical lines indicate the differences in protrusion number (specifically “zero” and “two”) corresponding to each of the cell lines, for which statistical significance is shown in Table 1.
All flow experiments were performed using a 35 mm diameter Glycotech parallel plate flow chamber. Perfusion experiments were performed at 1.5 dyn/cm^2 using a Harvard Apparatus 2000 PHD syringe pump. Perfusion media consisted of: RPMI supplemented with L-glutamine, 10% FCS, 1% penicillin/streptomycin, 50 μM β-mercaptoethanol, and 25 mM HEPES. Human Umbilical Vein Endothelial Cells (HUVEC–Lonza) were seeded onto 35 mm diameter glass coverslips (no. 1 thickness; VWR) that were pre-coated with 10 μg/mL fibronectin (37°C for at least 1 h). Before each perfusion assay, HUVEC were stimulated overnight (16 h) with 10 ng/mL carrier-free recombinant human TNF-α (R&D Systems). Each perfusion assay was performed by injecting a bolus of cells for 6 min, followed by just perfusion media (without cells) for the […]. THP-1 cells were perfused at a density of 0.5 ×10^6 cells per mL. THP-1 cells treated with 10 μM TAPI-0 required a preincubation time of 10 min at 37°C before perfusion over TNF-α-activated HUVEC. Note that 10 μM TAPI-0 was also supplemented in the perfusate. Stills were acquired once every 10 seconds using 10 × objective lens.

CC(C)C[C@H](CC(=O)NO)C(=O)N[C@@H](Cc1ccc2ccccc2c1)C(=O)N[C@@H](C)C(N)=O [TAPI-0, reference compound]
subcellular distribution of WT L-selectin clustering during TEM with sheddase inhibitor ([1]; 10 μM TAPI-0 pretreatment and in perfusate, WT L-selectin-GFP/RFP, 15 min perfusion): a large majority of L-selectin clustering had relocated from transmigrated pseudopods to non-transmigrated uropods

L-selectin cytoplasmic tail, 356-372 (from UniProt P14151) pS367 tail peptide
binding against the reference ([2]; reference: non-phosphorylated tail peptide (NPP), sites S367): same

mouse L-selectin cytoplasmic tail (from UniProt P18337) mouse pS364 tail peptide
binding against the reference ([2]; reference: mouse non-phosphorylated tail peptide (NPP), sites S364): lost

L-selectin cytoplasmic tail, 356-372 (from UniProt P14151) pS364 tail peptide
binding against the reference ([2]; reference: non-phosphorylated tail peptide (NPP), sites S364): lost

B1: SSDD: L-selectin with phospho-mimicking aspartates at Ser^364 and Ser^367 (protein)
chain: WTYHYSEKPMNWQRARRFCRDNYTDLVAIQNKAEIEYLEKTLPFSRSYYWIGIRKIGGIWTWVGTNKSLTEEAENWGDGEPNNKKNKEDCVEIYIKRNKDAGKWNDDACHKLKAALCYTASCQPWSCSGHGECVEIINNYTCNCDVGYYGPQCQFVIQCEPLEAPELGTMDCTHPLGNFSFSSQCAFSCSEGTNLTGIEETTCGPFGNWSSPEPTCQVIQCEPLSAPDLGIMNCSHPLASFSFTSACTFICSEGTELIGKKKTICESSGIWSNPSPICQKLDKSFSMIKEGDYNPLFIPVAVMVTAFSGLAFIIWLARRLKKGKKDKRDMNDPY
modifications: left off: eGFP (donor copy) or mCherry (acceptor copy, called RFP), C-terminal, kept
subcellular distribution of L-selectin clustering during TEM (FLIM/FRET) ([1]; 15 min perfusion at 1.5 dyn/cm^2, fixed in mid-TEM, Top = non-transmigrated uropods, Base = transmigrated pseudopods, at least 45 cells, 3 experiments, no TAPI-0): lacked any signs of clustering during TEM

B2: S364A: L-selectin with Ser^364 mutated to alanine, GFP-tagged, expressed in THP-1 cells (protein, UniProt P14151 39-372, looked up, variant S364A)
L-selectin: B1 chain with D326A, D329S
modifications: C-terminal GFP tag
protrusive activity profile in TEM (in words) ([3]; 6, 15 and 25 min of flow over TNF-α-activated HUVEC): produced a profile of protrusive activity that was similar to cells expressing WT L-selectin
cells with 2 protrusions ([3]; 15 min time point, mean of 3 fields of view per flow experiment, three occasions, at least 180 cells per group, significance ** S367A p ≤ 0.01 (Tukey), % printed): 32.9%
cells with 0 protrusions ([3]; 15 min time point, mean of 3 fields of view per flow experiment, three occasions, at least 180 cells per group, significance *** S367A p ≤ 0.001, ** SSAA p ≤ 0.01 (Tukey), % printed): 11.3%
